Patent publication US7816334B2, “Materials and methods relating to immune responses to fusion proteins” (Cancer Research Technology Limited, priority 2000, dated 2010)

Target: T1, H2-K^b (Mus musculus, UniProt P01901)
T1 sequence (P01901 22-369): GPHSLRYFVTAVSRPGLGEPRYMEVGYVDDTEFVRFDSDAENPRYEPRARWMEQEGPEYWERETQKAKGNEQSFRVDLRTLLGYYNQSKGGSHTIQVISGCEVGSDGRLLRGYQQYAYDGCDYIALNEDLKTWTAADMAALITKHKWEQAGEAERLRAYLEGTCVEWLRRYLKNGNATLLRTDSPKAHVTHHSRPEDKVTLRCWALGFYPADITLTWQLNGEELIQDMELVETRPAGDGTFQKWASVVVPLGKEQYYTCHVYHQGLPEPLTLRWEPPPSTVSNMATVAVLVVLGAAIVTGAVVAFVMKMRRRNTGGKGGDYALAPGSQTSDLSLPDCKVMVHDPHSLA
T1 sequence (P01887 21-119 partner): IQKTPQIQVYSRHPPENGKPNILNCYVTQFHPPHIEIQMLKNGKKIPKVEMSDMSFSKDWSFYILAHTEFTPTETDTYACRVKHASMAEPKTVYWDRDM
Experiment: Peptide binding assay (assembly/stabilization assay in RMA-S cell lysate)
Conditions: in vitro binding assay, compared with positive control peptide SEV
Procedure: Binding of each peptide to H2-K^b was performed using the assembly assay as described (29). This assay is based on the observation that, in a detergent lysate of RMA-S cells, K^b molecules are unstable and dissociate after an overnight incubation at 4° C. unless a stabilising (K^b-binding) peptide is added at the time of lysis. Only stabilised K^b molecules can therefore be recovered by immunoprecipitation with mAb Y3 after overnight incubation. The amount of recovered K^b is directly proportional to the amount of peptide bound, and the concentration of peptide required to effect 50% maximal recovery represents an approximate binding affinity (29). Recovery of H2-K^b heavy chains (HC) was quantitated after immunoprecipitation and SDS PAGE using AIDA (Fuji).

Sequence: LNIYYRRL [peptide 2]
- binding to H2-K^b: comparable to the positive control

Sequence: SNWYFNHL [peptide 1]
- binding to H2-K^b: comparable to the positive control
